Ends that are not written are not given here.

Holding throughout (test): fluorescence polarisation; apparent KD; constant 1 μM TAMRA-labelled p14ARF (45–64) peptide titrated with HUWE1 protein; 25°C, 20 mM HEPES pH 8.0, 150 mM NaCl, 10% glycerol, 1 mM EDTA, 5 mM DTT; three independent experiments
Conditions in all cases: both partners purified
A general note: Polarisation of emitted light reports the rotation of a fluorescent probe.

One test has as its target T1, HUWE1 (3896–4374) (human, UniProt Q7Z6Z7 3896-4374).
T1 construct: source: LOBSTR RIL cells, purified (IMAC, gel filtration)
T1 sequence (looked up): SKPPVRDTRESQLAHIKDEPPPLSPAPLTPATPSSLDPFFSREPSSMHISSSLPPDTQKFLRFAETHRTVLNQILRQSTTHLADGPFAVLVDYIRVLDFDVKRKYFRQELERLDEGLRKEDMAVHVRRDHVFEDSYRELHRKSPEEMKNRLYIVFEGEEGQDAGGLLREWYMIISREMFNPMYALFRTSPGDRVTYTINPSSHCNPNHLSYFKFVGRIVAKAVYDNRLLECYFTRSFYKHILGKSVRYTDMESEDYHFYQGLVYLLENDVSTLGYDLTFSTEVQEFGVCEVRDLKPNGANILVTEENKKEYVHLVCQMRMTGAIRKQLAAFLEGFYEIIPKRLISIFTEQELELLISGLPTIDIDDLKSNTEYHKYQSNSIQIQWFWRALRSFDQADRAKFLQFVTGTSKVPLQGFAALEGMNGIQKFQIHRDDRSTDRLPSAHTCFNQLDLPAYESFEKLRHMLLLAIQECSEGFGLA

Test [1] concerns the target T2, HUWE1 (3993–4374), HECT domain (human, UniProt Q7Z6Z7 3993-4374).
T2 construct: also called isolated HECT domain; source: LOBSTR RIL cells, purified (IMAC, gel filtration)
T2 sequence (looked up): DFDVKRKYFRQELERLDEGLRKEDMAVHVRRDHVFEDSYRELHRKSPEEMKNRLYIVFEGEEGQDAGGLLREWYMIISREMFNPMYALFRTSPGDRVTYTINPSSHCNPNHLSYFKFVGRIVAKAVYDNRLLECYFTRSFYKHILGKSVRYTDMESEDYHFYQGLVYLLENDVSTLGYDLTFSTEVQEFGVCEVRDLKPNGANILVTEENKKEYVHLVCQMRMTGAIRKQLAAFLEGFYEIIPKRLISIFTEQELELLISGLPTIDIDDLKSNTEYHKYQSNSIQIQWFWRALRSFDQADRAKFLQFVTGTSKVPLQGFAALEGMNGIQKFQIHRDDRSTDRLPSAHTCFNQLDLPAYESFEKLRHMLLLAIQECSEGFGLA

Test [2] addresses T3, MBP-tagged activation segment of HUWE1 (residues 3843–3902) (human, UniProt Q7Z6Z7 3843-3902).
T3 construct: pETM41: N-terminal TEV protease-cleavable MBP-tag, C-terminal 3C protease-cleavable His6-tag; source: E. coli BL21(DE3), purified (IMAC, gel filtration); not shown: MBP, N-terminal, kept; His6, C-terminal, kept
T3 sequence (looked up): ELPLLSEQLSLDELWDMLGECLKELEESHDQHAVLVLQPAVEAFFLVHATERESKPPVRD

Test [3] deals with T4, HUWE1 (3951–4374), untagged (human, UniProt Q7Z6Z7 3951-4374).
T4 construct: Monomer MW 49.752 kDa (AUC methods); source: LOBSTR RIL cells, purified (IMAC, TEV protease cleavage, second IMAC, gel filtration); not shown: His6, N-terminal, cleaved
T4 sequence (looked up): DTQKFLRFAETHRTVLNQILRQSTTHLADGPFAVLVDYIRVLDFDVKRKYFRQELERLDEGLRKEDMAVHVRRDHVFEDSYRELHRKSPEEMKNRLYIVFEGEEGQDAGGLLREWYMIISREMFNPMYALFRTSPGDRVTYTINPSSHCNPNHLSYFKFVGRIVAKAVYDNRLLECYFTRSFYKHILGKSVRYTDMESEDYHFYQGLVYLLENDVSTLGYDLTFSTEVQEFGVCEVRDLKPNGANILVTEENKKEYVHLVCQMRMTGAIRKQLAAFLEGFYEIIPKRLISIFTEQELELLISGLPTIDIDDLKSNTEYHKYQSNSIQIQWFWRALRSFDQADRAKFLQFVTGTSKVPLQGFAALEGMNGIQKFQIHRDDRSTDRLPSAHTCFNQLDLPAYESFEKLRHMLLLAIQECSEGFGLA

The target in the next test is T5, HUWE1 (3843–4374) (human, UniProt Q7Z6Z7 3843-4374).
T5 construct: source: LOBSTR RIL cells, purified (IMAC, gel filtration)
T5 sequence (looked up): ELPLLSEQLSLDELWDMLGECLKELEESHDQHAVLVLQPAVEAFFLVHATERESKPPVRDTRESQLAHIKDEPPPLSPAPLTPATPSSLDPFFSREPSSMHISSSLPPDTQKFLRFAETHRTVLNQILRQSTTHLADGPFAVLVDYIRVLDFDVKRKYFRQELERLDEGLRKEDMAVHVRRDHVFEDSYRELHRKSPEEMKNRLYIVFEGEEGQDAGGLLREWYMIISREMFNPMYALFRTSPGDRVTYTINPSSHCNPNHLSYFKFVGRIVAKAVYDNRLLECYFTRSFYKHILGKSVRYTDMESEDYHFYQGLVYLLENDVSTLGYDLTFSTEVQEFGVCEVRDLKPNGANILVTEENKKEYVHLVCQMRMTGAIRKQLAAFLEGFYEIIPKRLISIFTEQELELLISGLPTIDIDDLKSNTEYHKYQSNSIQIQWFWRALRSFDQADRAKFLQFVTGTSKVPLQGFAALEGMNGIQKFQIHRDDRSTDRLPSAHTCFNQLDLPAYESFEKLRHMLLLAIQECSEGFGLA

B1: fluorophor-labeled p14ARF-derived peptide (residues 45–64), TAMRA-labelled (peptide)
peptide: LVLMLLRSQRLGQQPLPRRPK(TAMRA)
notes: p14ARF (alternative reading frame product of CDKN2A), human, residues 45–64; additional lysine residue at the C-terminus that carries the TAMRA label (told in words); also called p14ARF-peptide; p14ARF (45-64); source: synthetic peptide, bought: Elim Biopharm
For the molecule B1, the Kd with HUWE1 (3896–4374) was found to be 340 ± 60 µM; in test [1] it was 230 ± 40 µM; in test [2] it was 3.6 ± 0.2 µM; in test [3], 280 ± 40 µM; in the test with HUWE1 (3843–4374), 5.2 ± 0.2 µM.

Values taken from publication PMC5308896, “A conformational switch regulates the ubiquitin ligase HUWE1” (eLife, 2017).
